From patent US20240270846A1 (published 2024)
Changes are numbered by the printed parent chain. Names may count otherwise.

B1: GLS3000 V94P one-amino acid altered one-arm antibody (CE115HA000-pE22Hh / Kn010G3 / GLS3000 V94P-kappa) (antibody, human IgG1, kappa, L234A L235A, N297A, name in Kabat numbering)
heavy: QVQLVESGGGVVQPGRSLRLSCAASGFTFSNAWMHWVRQAPGKGLEWVAQIKAKSNNYATYYAESVKGRFTISRDDSKNSLYLQMNSLKTEDTAVYYCRYVHYGAYYGVDAWGQGTTVTVSSASTKGPSVFPLAPSSKSTSGGTAALGCLVKDYFPEPVTVSWNSGALTSGVHTFPAVLQSSGLYSLSSVVTVPSSSLGTQTYICNVNHKPSNTKVDKKVEPKSCDKTHTCPPCPAPEAAGGPSVFLFPPKPKDTLMISRTPEVTCVVVDVSHEDPEVKFNWYVDGVEVHNAKTKPREEQYASTYRVVSVLTVLHQDWLNGKEYKCKVSNKALPAPIEKTISKAKGQPREPQVYTLPPSRCELTKNQVSLSCAVKGFYPSDIAVEWESNGQPENNYKTTPPVLDSDGSFFLVSKLTVDKSRWQQGNVFSCSVMHEALHNHYTQKSLSLSPDYKDDDDK
chain: EPKSSDKTHTCPPCPAPELLGGPSVFLFPPKPKDTLMISRTPEVTCVVVDVSHEDPEVKFNWYVDGVEVHNAKTKPREEQYNSTYRVVSVLTVLHQDWLNGKEYKCKVSNKALPAPIEKTISKAKGQPREPQVCTLPPSRDELTKNQVSLWCLVKGFYPSDIAVEWESNGQPENNYKTTPPVLDSDGSFFLYSKLTVDKSRWQQGNVFSCSVMHEALHNRYTQKSLSLSP
light: DIVMTQSPLSLPVTPGEPASISCRSSQSLVHSNRNTYLHWYQQKPGQAPRLLIYKVSNRFSGVPDRFSGSGSGTDFTLKISRVEAEDVGVYYCGQGTQPPYTFGQGTKLEIKRTVAAPSVFIFPPSDEQLKSGTASVVCLLNNFYPREAKVQWKVDNALQSGNSQESVTEQDSKDSTYSLSSTLTLSKADYEKHKVYACEVTHQGLSSPVTKSFNRGEC
notes: One-arm antibody; substitution position in Kabat numbering; also called L chain altered form, Kabat 94 V to P
B2: GLS3000 V94Y one-amino acid altered one-arm antibody (CE115HA000-pE22Hh / Kn010G3 / GLS3000 V94Y-kappa) (antibody, human IgG1, kappa, L234A L235A, N297A, name in Kabat numbering)
heavy: B1 heavy
chain: B1 chain
light: B1 light with P99Y
notes: One-arm antibody; substitution position in Kabat numbering; also called L chain altered form, Kabat 94 V to Y
B3: GLS3000 Q90Y one-amino acid altered one-arm antibody (CE115HA000-pE22Hh / Kn010G3 / GLS3000 Q90Y-kappa) (antibody, human IgG1, kappa, L234A L235A, N297A, name in Kabat numbering)
heavy: B1 heavy
chain: B1 chain
light: B1 light with Q95Y, P99V
notes: One-arm antibody; substitution position in Kabat numbering; also called L chain altered form, Kabat 90 Q to Y
B4: GLS3000 V94Q one-amino acid altered one-arm antibody (CE115HA000-pE22Hh / Kn010G3 / GLS3000 V94Q-kappa) (antibody, human IgG1, kappa, L234A L235A, N297A, name in Kabat numbering)
heavy: B1 heavy
chain: B1 chain
light: B1 light with P99Q
notes: One-arm antibody; substitution position in Kabat numbering; also called L chain altered form, Kabat 94 V to Q
B5: GLS3000 G91Y one-amino acid altered one-arm antibody (CE115HA000-pE22Hh / Kn010G3 / GLS3000 G91Y-kappa) (antibody, human IgG1, kappa, L234A L235A, N297A, name in Kabat numbering)
heavy: B1 heavy
chain: B1 chain
light: B1 light with G96Y, P99V
notes: One-arm antibody; substitution position in Kabat numbering; also called L chain altered form, Kabat 91 G to Y
B6: GLS3000 V94W one-amino acid altered one-arm antibody (CE115HA000-pE22Hh / Kn010G3 / GLS3000 V94W-kappa) (antibody, human IgG1, kappa, L234A L235A, N297A, name in Kabat numbering)
heavy: B1 heavy
chain: B1 chain
light: B1 light with P99W
notes: One-arm antibody; substitution position in Kabat numbering; also called L chain altered form, Kabat 94 V to W
B7: GLS3000 Q90P one-amino acid altered one-arm antibody (CE115HA000-pE22Hh / Kn010G3 / GLS3000 Q90P-kappa) (antibody, human IgG1, kappa, L234A L235A, N297A, name in Kabat numbering)
heavy: B1 heavy
chain: B1 chain
light: B1 light with Q95P, P99V
notes: One-arm antibody; substitution position in Kabat numbering; also called L chain altered form, Kabat 90 Q to P
B8: GLS3000 T92P one-amino acid altered one-arm antibody (CE115HA000-pE22Hh / Kn010G3 / GLS3000 T92P-kappa) (antibody, human IgG1, kappa, L234A L235A, N297A, name in Kabat numbering)
heavy: B1 heavy
chain: B1 chain
light: B1 light with T97P, P99V
notes: One-arm antibody; substitution position in Kabat numbering; also called L chain altered form, Kabat 92 T to P
B9: GLS3000 V94T one-amino acid altered one-arm antibody (CE115HA000-pE22Hh / Kn010G3 / GLS3000 V94T-kappa) (antibody, human IgG1, kappa, L234A L235A, N297A, name in Kabat numbering)
heavy: B1 heavy
chain: B1 chain
light: B1 light with P99T
notes: One-arm antibody; substitution position in Kabat numbering; also called L chain altered form, Kabat 94 V to T
B10: GLS3000 T92Y one-amino acid altered one-arm antibody (CE115HA000-pE22Hh / Kn010G3 / GLS3000 T92Y-kappa) (antibody, human IgG1, kappa, L234A L235A, N297A, name in Kabat numbering)
heavy: B1 heavy
chain: B1 chain
light: B1 light with T97Y, P99V
notes: One-arm antibody; substitution position in Kabat numbering; also called L chain altered form, Kabat 92 T to Y
B11: GLS3000 Q93S one-amino acid altered one-arm antibody (CE115HA000-pE22Hh / Kn010G3 / GLS3000 Q93S-kappa) (antibody, human IgG1, kappa, L234A L235A, N297A, name in Kabat numbering)
heavy: B1 heavy
chain: B1 chain
light: B1 light with Q98S, P99V
notes: One-arm antibody; substitution position in Kabat numbering; also called L chain altered form, Kabat 93 Q to S
B12: GLS3000 G89V one-amino acid altered one-arm antibody (CE115HA000-pE22Hh / Kn010G3 / GLS3000 G89V-kappa) (antibody, human IgG1, kappa, L234A L235A, N297A, name in Kabat numbering)
heavy: B1 heavy
chain: B1 chain
light: B1 light with G94V, P99V
notes: One-arm antibody; substitution position in Kabat numbering; also called L chain altered form, Kabat 89 G to V
B13: GLS3000 Q93Y one-amino acid altered one-arm antibody (CE115HA000-pE22Hh / Kn010G3 / GLS3000 Q93Y-kappa) (antibody, human IgG1, kappa, L234A L235A, N297A, name in Kabat numbering)
heavy: B1 heavy
chain: B1 chain
light: B1 light with Q98Y, P99V
notes: One-arm antibody; substitution position in Kabat numbering; also called L chain altered form, Kabat 93 Q to Y
B14: GLS3000 G91T one-amino acid altered one-arm antibody (CE115HA000-pE22Hh / Kn010G3 / GLS3000 G91T-kappa) (antibody, human IgG1, kappa, L234A L235A, N297A, name in Kabat numbering)
heavy: B1 heavy
chain: B1 chain
light: B1 light with G96T, P99V
notes: One-arm antibody; substitution position in Kabat numbering; also called L chain altered form, Kabat 91 G to T
B15: GLS3000 Q93R one-amino acid altered one-arm antibody (CE115HA000-pE22Hh / Kn010G3 / GLS3000 Q93R-kappa) (antibody, human IgG1, kappa, L234A L235A, N297A, name in Kabat numbering)
heavy: B1 heavy
chain: B1 chain
light: B1 light with Q98R, P99V
notes: One-arm antibody; substitution position in Kabat numbering; also called L chain altered form, Kabat 93 Q to R

The binders below were run against T1, CD3 epsilon homodimer protein (UniProt P07766 23-126) (assay: SPR Biacore T200, CD3 epsilon homodimer immobilised on CM4, one-arm antibody as analyte, single-cycle kinetics; reference unaltered GLS3000 antibody;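 also: CD3 epsilon homodimer attached to the CM4 chip via amine coupling, measured at 25 °C with HBS-EP+ as running buffer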).
T1 construct: also called CD3 (CD3 epsilon)
T1 sequence (P07766 23-126): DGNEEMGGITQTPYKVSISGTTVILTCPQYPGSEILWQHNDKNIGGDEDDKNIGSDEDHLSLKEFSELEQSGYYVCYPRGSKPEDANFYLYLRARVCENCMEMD
Description: An appropriate amount of CD3 epsilon homodimer protein was immobilized onto Sensor chip CM4 (GE Healthcare Japan Corp.) by the amine coupling method. Then, the antibody having an appropriate concentration was injected thereto as an analyte and allowed to interact with the CD3 epsilon homodimer protein on the sensor chip. Then, the sensor chip was regenerated by the injection of 10 mmol/L glycine-HCl (pH 1.5). The assay was conducted at 25 degrees C., and HBS-EP+(GE Healthcare Japan Corp.) was used as a running buffer. […] Each parameter was calculated using Biacore T200 Evaluation Software (GE Healthcare Japan Corp.).
Specifically, when the amount of the GLS3000-containing antibody bound was defined as X and the amount of the L chain one-amino acid altered form bound was defined as Y, a value of Z (ratio of amounts bound)=Y/X was used.

Compared with B1, B2 is higher in “dissociation constant KD(M) ratio of L chain altered form to GLS3000” value (“dissociation constant KD(M) ratio” below): 1.1 ratio for the first, 2.45 ratio for the second.

First: B3
Second: B4
The “dissociation constant KD(M) ratio” value of the first is higher: 36.3 ratio for the first, 1.1 ratio for the second.

Going from B5 to B6, the “dissociation constant KD(M) ratio” value falls from 33.8 ratio to 1.81 ratio.

First: B7
Second: B8
The “dissociation constant KD(M) ratio” value of the first is lower: 15.9 ratio for the first, 26.7 ratio for the second.

First: B9
Second: B10
The “dissociation constant KD(M) ratio” value of the first is lower: 1.06 ratio for the first, 2.55 ratio for the second.

Compared with B11, B12 is higher in “dissociation constant KD(M) ratio” value: 0.75 ratio for the first, 1.4 ratio for the second.

First: B13
Second: B14
The “dissociation constant KD(M) ratio” value of the first is lower: 0.76 ratio for the first, 39.9 ratio for the second.

B15 was tested, and the “dissociation constant KD(M) ratio” value was 0.79 ratio.
